We go through one molecule from patent US20160194399A1.

The target in assay [1] is SP34-binding peptide 15253. Kind of assay: flow cytometry on peptide-displaying E. coli, 1 nM SP34-dylight-488 with 100 nM free human CD3ε as competitor, normalised to peptide expression (yPet-Mona).
Assay [2] has as its target SP34-binding peptide 15253. The assay can be described thus: flow cytometry on peptide-displaying E. coli, 0.1 nM SP34-dylight-488 with 100 nM isotype control, normalised to peptide expression (yPet-Mona). (In general: Flow cytometry measures light scatter and fluorescence of single cells or particles in a stream.)
Assay [3] addresses SP34-binding peptide 15253. Kind of assay: flow cytometry on peptide-displaying E. coli, 100 nM SP34-dylight-488 with 100 nM isotype control, normalised to peptide expression (yPet-Mona).
For assay [4], the target named is SP34-binding peptide 15253. Kind of assay: flow cytometry on peptide-displaying E. coli, 10 nM SP34-dylight-488 with 100 nM isotype control, normalised to peptide expression (yPet-Mona).
In assay [5] the target is SP34-binding peptide 15253. The assay can be described thus: flow cytometry on peptide-displaying E. coli, 1 nM SP34-dylight-488 with 100 nM isotype control, normalised to peptide expression (yPet-Mona).

B1: Anti-CD3ε antibody SP34 (antibody, V domains shown)
VH: EVQLVESGGGLVQPKGSLKLSCAASGFTFNTYAMNWVRQAPGKGLEWVARIRSKYNNYATYYADSVKDRFTISRDDSQSILYLQMNNLKTEDTAMYYCVRHGNFGNSYVSWFAYWGQGTLVTVSA
VL: QAVVTQESALTTSPGETVTLTCRSSTGAVTTSNYANWVQEKPDHLFTGLIGGTNKRAPGVPARFSGSLIGDKAALTITGAQTEDEAIYFCALWYSNLWVFGGGTKLTVL
With B1, the expression normalized binding in assay [1] turned out to be 0.53; in assay [2], 0.55; in assay [3], 2.53; in assay [4], 0.98; in assay [5], 0.68.
